Source: patent US20130289253A1
Where “and” joins values, the source holds several entries; their conditions need not be identical. Equal entries are not always repeated. Where two headings read alike, the source gives them in different places.

Tests used:
control (Fig. 49) [1] = target: control (Fig. 49)
control (Fig. 49) [2] = target: control (Fig. 49); remark: listed apart in the source

“DR4 2×His DTB-HA306-318 complexes (DTB-streptactin purified monomers) (from UniProt P01903 26-216) (peptide-MHC)” was tested, and the % of cells in Q2 (multimer+ CD4+) (control (Fig. 49) [1]) was 0.535% and 0.421% and the % of cells in Q2 (multimer+ CD4+) (control (Fig. 49) [2]) was 0.985% and 0.623%.
